In patent US20070148130A1:

What was measured:
MPRN-12 = system: T1, MPRN-12
T1 sequence: NVKGTEDSG

MPRN-20 = system: T2, MPRN-20
T2 sequence: KGTEDSGTT

Substance: partially purified native TRRE (pooled Phenyl Sepharose fractions with the highest specific activity, from stimulated THP-1 cells)
- TNF-R peptide cleavage activity (FRET assay) of Phenyl Sepharose elution fractions (MPRN-12): The leading edge of the protein peak was found to give the highest FRET signal (shown here for MPRN-12)
- specific activity in the FRET peptide cleavage assay (MPRN-12): a specific activity of 378 FU/µg in the FRET assay using the MPRN-12 substrate
- TNF-R peptide cleavage activity (FRET assay) of Phenyl Sepharose elution fractions (MPRN-20): Fractions 4-6 but not 7-10 also cleaved MPRN-20
